Test results taken from patent US20250367270A1.

Target: SARS-CoV-2 recombinant spike HexaPro protein (SARS-CoV-2) (UniProt P0DTC2)
Assay: SPR

ACE2 monomer construct (SS-ACE2-Linker) (from UniProt Q9BYF1 19-614)
Kd: 72 nM
